Publication PMC4624198

Target: T1, HTP-3 (G490K, G728K), Strep-tagged (C. elegans), O01820
T1 chain: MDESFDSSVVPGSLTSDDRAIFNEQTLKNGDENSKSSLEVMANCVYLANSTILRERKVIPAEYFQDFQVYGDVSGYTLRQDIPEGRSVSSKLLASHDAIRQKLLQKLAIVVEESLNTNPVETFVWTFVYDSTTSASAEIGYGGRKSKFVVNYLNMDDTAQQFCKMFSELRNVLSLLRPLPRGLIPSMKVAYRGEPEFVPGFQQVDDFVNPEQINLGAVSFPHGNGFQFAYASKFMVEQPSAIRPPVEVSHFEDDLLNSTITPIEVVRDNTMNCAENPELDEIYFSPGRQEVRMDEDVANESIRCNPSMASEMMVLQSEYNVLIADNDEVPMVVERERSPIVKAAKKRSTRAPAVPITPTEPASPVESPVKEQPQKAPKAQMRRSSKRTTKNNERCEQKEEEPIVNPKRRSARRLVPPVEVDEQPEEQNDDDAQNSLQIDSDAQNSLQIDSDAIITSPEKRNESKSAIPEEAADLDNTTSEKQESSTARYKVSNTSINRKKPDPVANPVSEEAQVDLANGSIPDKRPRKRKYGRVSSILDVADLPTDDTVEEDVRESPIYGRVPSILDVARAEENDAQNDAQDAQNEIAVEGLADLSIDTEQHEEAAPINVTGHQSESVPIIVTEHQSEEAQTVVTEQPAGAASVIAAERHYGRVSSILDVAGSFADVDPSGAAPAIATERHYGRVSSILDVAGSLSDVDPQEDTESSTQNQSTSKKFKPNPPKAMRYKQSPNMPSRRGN
Test: pull-down
Conditions: remark: other sources report otherwise

B1: HTP-1, untagged, Q20305 1-352 (natural protein)
chain: MAPLETIYDESLNKSADSIDDKKWSKLFPRIVSDPDRSSNFMTRAIYVAFSAVLRNRNILGQEYFTKNYITEKLKCMTLCFRNPRSNQIAQLLRNAGDATKDGFLKEVSLVITNNEGDLEAIEVFSMKFIYFENGGVVARLSTDKNGQEDPHFAKLAQLVYEGGDSVRDQMVTIVRSVQFLCTKVLEPLPEEFTANFRLEYTNDAPSNFRIDGFEDSSTFYTLPDDIQSATIGHLRPGCHAANMECWSMLMSDSYEAELTLKRHLDKVSDRHGFNPVNVLYKSFNSEDSDTSLSQATTESVNDQGGNETSPVDDITESLEKAQMSPIQTRPTTRRGADGSKTRSSPYSRSCK
In the case of B1, the HTP-1 bound, percent of the amount bound to the wild-type complex is reported as 10%.
